The record followed here is article PMC5787804, “Communication between N terminus and loop2 tunes Orai activation” (The Journal of Biological Chemistry, 2017).

The target in the assay is T1, Orai3-L2 (aa 111–161, mutation C118G) (human, UniProt Q9BRQ5 111-161, C118G, conjugated to amino-functionalized AFM cantilever tips via a flexible NHS-PEG18-acetal cross-linker).
T1 construct: human Orai3 loop2, aa 111–161; also called Orai3-loop2; source: synthetic peptide (custom-synthesized, >95% purity, Synpeptide)
Briefly: AFM single-molecule force spectroscopy; loop2 peptide tethered to the cantilever tip via a PEG linker, Orai1-NT peptide immobilised on silicon chips; room temperature, HBS buffer (150 mM NaCl, 5 mM Hepes); pulling velocity 50-8000 nm/s; koff from the Bell-Evans single energy barrier model. Conditions: both partners purified.

B1: Orai1-NT 70–91 (peptide)
peptide: SMQALSWRKLYLSRAKLKASSRC
modifications: added C-terminal cysteine for site-specific coupling; immobilized on silicon chips via NHS-PEG27-maleimide linkers
notes: human Orai1 N terminus, aa 70–91; added C-terminal cysteine for site-specific coupling (told in words); also called Orai1 70–91; non-truncated Orai1 NT; source: synthetic peptide (custom-synthesized, >95% purity, DgPeptides)
Take B1: the binding result is listed as “binds”.
